Publication PMC4359790

Biological target: bovine fetuin (bovine) (UniProt P12763)
Experiment: Corning Epic label-free (resonant waveguide grating, Enspire reader)

| Substance | response (change in wavelength) at 20 μg/ml rHA [pm] |
| --- | --- |
| recombinant hemagglutinin (rHA) of A/Hangzhou/3/2013 (H7N9) (natural protein) | 80 |
| recombinant hemagglutinin (rHA) of A/Brisbane/59/2007 (H1N1) (natural protein; modification not given) | 80 |
| recombinant hemagglutinin (rHA) of B/Brisbane/60/2008 (natural protein) | 140 |
